Experimental data from publication PMC7269035.

Target: LARP1 DM15 F844Y/R847E (FYRE) (Homo sapiens, UniProt Q6PKG0-3 796-946, F844Y;R847E)
Assay: EMSA

GCUCUUUUCCGUGGCGCCUC (ssRNA, 5' m7Gppp cap (vaccinia capping enzyme)) [m7Gppp-non-TOP (+1G) RPS6 20-mer]
binding result: binds
